In assay [1] the target is vasopressin type 2 receptor (V2R) (UniProt P30518).
The target of assay [2] is chimeric V2R harboring the carboxy-terminal tail of the β2-adrenergic receptor (V2β2AR).
In assay [3] the target is vasopressin type 2 receptor (V2R) (UniProt P30518). The source holds these as a separate data set.

As for mini G protein mGsq, in assay [1], the AVP-induced maximal efficacy of the AVP dose-response of Rluc-mGsq recruitment to early endosomes (EbBRET with rGFP-Rab5), parental HEK293 cells, 45 minutes is 0.05 ΔEbBRET; the AVP-induced maximal efficacy of the AVP dose-response of Rluc-mGsq recruitment to early endosomes (EbBRET with rGFP-Rab5), Δβarr1/2 HEK293 cells, 45 minutes is 0.024 ΔEbBRET; the AVP-induced maximal efficacy of the AVP dose-response of Rluc-mGsq recruitment to the plasma membrane (EbBRET with rGFP-CAAX), parental HEK293 cells, 10 minutes is 0.168 ΔEbBRET; the AVP-induced maximal efficacy of the AVP dose-response of Rluc-mGsq recruitment to the plasma membrane (EbBRET with rGFP-CAAX), Δβarr1/2 HEK293 cells, 10 minutes was 0.18 ΔEbBRET. In assay [2], the AVP-mediated maximal efficacy of the AVP dose-response of Rluc-mGsq recruitment to early endosomes (EbBRET with rGFP-Rab5), cells expressing V2β2AR is 0.061 ΔEbBRET and the AVP-mediated maximal efficacy of the AVP dose-response of Rluc-mGsq recruitment to the plasma membrane (EbBRET with rGFP-CAAX), cells expressing V2β2AR was 0.183 ΔEbBRET. Besides, in assay [3], the AVP-mediated maximal efficacy of the AVP dose-response of Rluc-mGsq recruitment to early endosomes (EbBRET with rGFP-Rab5), cells expressing V2R is 0.05 ΔEbBRET and the AVP-mediated maximal efficacy of the AVP dose-response of Rluc-mGsq recruitment to the plasma membrane (EbBRET with rGFP-CAAX), cells expressing V2R is 0.161 ΔEbBRET.
In assay [2], arginine vasopressin (AVP) (peptide) had a potency of AVP for recruitment of Rluc-mGsq to early endosomes (EbBRET with rGFP-Rab5), cells expressing V2β2AR of -7.82 LogEC50; a potency of AVP for recruitment of Rluc-mGsq to the plasma membrane (EbBRET with rGFP-CAAX), cells expressing V2β2AR of -7.97 LogEC50; a transduction coefficient (operational model) of AVP for recruitment of Rluc-mGs to the plasma membrane, cells expressing V2β2AR of 8.04 Logτ/Ka; a transduction coefficient (operational model) of AVP for recruitment of Rluc-mGsq to early endosomes, cells expressing V2β2AR of 7.91 Logτ/Ka.
With mini G protein mGs, in assay [1], the AVP-induced maximal efficacy of the AVP dose-response of Rluc-mGs recruitment to early endosomes (EbBRET with rGFP-Rab5), parental HEK293 cells, 45 minutes is 0.18 ΔEbBRET; the AVP-induced maximal efficacy of the AVP dose-response of Rluc-mGs recruitment to early endosomes (EbBRET with rGFP-Rab5), Δβarr1/2 HEK293 cells, 45 minutes is 0.074 ΔEbBRET; the AVP-induced maximal efficacy of the AVP dose-response of Rluc-mGs recruitment to the plasma membrane (EbBRET with rGFP-CAAX), parental HEK293 cells, 10 minutes is 0.324 ΔEbBRET; the AVP-induced maximal efficacy of the AVP dose-response of Rluc-mGs recruitment to the plasma membrane (EbBRET with rGFP-CAAX), Δβarr1/2 HEK293 cells, 10 minutes is 0.376 ΔEbBRET. Also, in assay [2], the AVP-mediated maximal efficacy of the AVP dose-response of Rluc-mGs recruitment to early endosomes (EbBRET with rGFP-Rab5), cells expressing V2β2AR is 0.15 ΔEbBRET and the AVP-mediated maximal efficacy of the AVP dose-response of Rluc-mGs recruitment to the plasma membrane (EbBRET with rGFP-CAAX), cells expressing V2β2AR was 0.392 ΔEbBRET. In assay [3], the AVP-mediated maximal efficacy of the AVP dose-response of Rluc-mGs recruitment to early endosomes (EbBRET with rGFP-Rab5), cells expressing V2R was 0.167 ΔEbBRET and the AVP-mediated maximal efficacy of the AVP dose-response of Rluc-mGs recruitment to the plasma membrane (EbBRET with rGFP-CAAX), cells expressing V2R is 0.3 ΔEbBRET.

Source of the values: doi:10.1101/2023.04.01.535208.
